Data published in IntAct's records for PubMed 26455797.

B1: CCAAT/enhancer-binding protein alpha (Homo sapiens), P49715-1 (parent)
chain: MESADFYEAEPRPPMSSHLQSPPHAPSSAAFGFPRGAGPAQPPAPPAAPEPLGGICEHETSIDISAYIDPAAFNDEFLADLFQHSRQQEKAKAAVGPTGGGGGGDFDYPGAPAGPGGAVMPGGAHGPPPGYGCAAAGYLDGRLEPLYERVGAPALRPLVIKQEPREEDEAKQLALAGLFPYQPPPPPPPSHPHPHPPPAHLAAPHLQFQIAHCGQTTMHLQPGHPTPPPTPVPSPHPAPALGAAGLPGPGSALKGLGAAHPDLRASGGSGAGKAKKSVDKNSNEYRVRRERNNIAVRKSRDKAKQRNVETQQKVLELTSDNDRLRKRVEQLSRELDTLRGIFRQLPESSLVKAMGNCA
partner: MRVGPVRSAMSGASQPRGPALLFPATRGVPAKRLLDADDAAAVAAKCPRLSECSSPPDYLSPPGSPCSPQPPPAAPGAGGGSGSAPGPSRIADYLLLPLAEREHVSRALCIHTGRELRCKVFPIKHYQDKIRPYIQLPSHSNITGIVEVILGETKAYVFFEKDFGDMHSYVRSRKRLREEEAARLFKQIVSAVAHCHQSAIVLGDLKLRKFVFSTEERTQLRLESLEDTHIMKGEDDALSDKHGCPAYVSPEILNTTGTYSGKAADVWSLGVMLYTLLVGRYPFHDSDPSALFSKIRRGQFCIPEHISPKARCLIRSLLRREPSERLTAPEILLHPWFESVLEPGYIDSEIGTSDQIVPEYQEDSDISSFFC

Variants of: B1
Settings: with TRIB1, Q96RU8-1

Effect of a mutation on the interaction, decreasing interaction strength:
E59A
I68D
I62D
I55A
S61A
Y67A
I64D
